Consider 2 molecules from US20190241886A1 (ADAGENE, published 2019).

For assay [1], the target named is T1, Recombinant human CTLA4-Fc (human, UniProt P16410 36-161, limits assumed).
T1 construct: Coated on the ELISA plate at 1 ug/mL; also called antigen; not shown: Fc part
T1 sequence (looked up): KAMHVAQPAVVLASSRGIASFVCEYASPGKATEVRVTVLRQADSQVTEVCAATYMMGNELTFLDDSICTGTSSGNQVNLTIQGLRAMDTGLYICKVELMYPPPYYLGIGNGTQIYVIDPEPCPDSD
Description: ELISA EC50 divided by EC50 of parental TY21580 (FIG. 24B). The procedure:
(§1) Recombinant human CTLA4-Fc was diluted to 1μg/mL in PBS and coated on a Maxisorp plate at 4° C. overnight. Plates were blocked with PBS supplemented with 3% non-fat milk at 37° C. for 1 hour. After washing, 100 μL of 3-fold serial dilutions of antibodies were added to each well. After incubation at 37° C. for 1 hour, plates were washed four times, and 100 μL HRP conjugated anti-human IgG (Fab specific) (1:6000 dilution) was added to each well. Plates were incubated at 37° C. for 1 hour, washed four times, and then 50 μL TMB substrate solution was added to each well, and the plate was incubated at room temperature. Absorbance at 450 nm was measured after the reactions were stopped with 50 μL H₂SO₄ per well. The EC₅₀ was evaluated by fitting the ELISA data using the asymmetrical sigmoidal (five-parameter logistic equation) model of GraphPad Prism 6 software.
For orientation: In an ELISA, binding on a coated surface is turned into a signal by an enzyme label.

The target in assay [2] is T1, Recombinant human CTLA4-Fc. Description: ELISA EC50 divided by EC50 of parental TY21580 (FIG. 24A). As to the method:
as §1

Assay [3] addresses T1, Recombinant human CTLA4-Fc. Description: ELISA EC50 divided by EC50 of parental TY21580 (FIG. 25). The procedure: as §1

B1: TY22402 (as listed in Table 11) (antibody, V domains shown)
VH: EVQLVESGGGLVQPGGSLRLSCAASGYSISSGYHWSWIRQAPGKGLEWLARIDWDDDKYYSTSLKSRLTISRDNSKNTLYLQLNSLRAEDTAVYYCARSYVYFDYWGQGTLVTVSS
VL: EVGSYIVHHSDCDAFYPYCDSSGRSAGGGGTPLGLAGSGGSDIQLTQSPSSLSASVGDRVTITCRASQSVRGRFLAWYQQKPGKAPKLLIYDASNRATGIPSRFSGSGSGTDFTLTISSLQPEDFATYYCQQSSSWPPTFGQGTKVEIKR
notes: kept apart from m3; Expressed in mammalian cells; isotype not restated
Regarding B1, the values for the Masking efficiency in assay [1] and in assay [2] were 554 and 243, respectively.

B2: TY22404 (as listed in Tables 11 and 14) (antibody, V domains shown)
VH: EVQLVESGGGLVQPGGSLRLSCAASGYSISSGYHWSWIRQAPGKGLEWLARIDWDDDKYYSTSLKSRLTISRDNSKNTLYLQLNSLRAEDTAVYYCARSYVYFDYWGQGTLVTVSS
VL: EVGSYPNPSSDCVPYYYACAYSGRSAGGGGTPLGLAGSGGSDIQLTQSPSSLSASVGDRVTITCRASQSVRGRFLAWYQQKPGKAPKLLIYDASNRATGIPSRFSGSGSGTDFTLTISSLQPEDFATYYCQQSSSWPPTFGQGTKVEIKR
notes: kept apart from m5; Expressed in mammalian cells; isotype not restated
B2: the Masking efficiency was 572 in assay [1], 308 in assay [2] and 469 in assay [3].
